Molecular target: mitochondrial ATP synthase (mouse (endogenous in MEFs)) (UniProt Q03265)
Assay: native gel or EMSA

- stoichiometry N: 2
Substance: mitochondrial ATP synthase (from UniProt Q03265 44-553) (complex)

From article PMC3088644
